According to the DeepSol protein solubility set:

Experiment: soluble on expression in E. coli; label from the status in PepcDB or PDB records

Soluble on expression in E. coli, not soluble:
MGSDKIHHHHHHMLEQQATIVDVNESNLNQVLEHSATLPVLFYFWSARSQHCVELEPVLDKLAQEYAGQFVLAKVDCDAEQRVAAQFGLRSIPTVYLFKDGQPLDGFQGPQPEEAVRELLKRALPKEEELKVAQAQQLIQEDKLPEAMQLLKDAWQLSQQRSDIGLMLAEVQIQIKRSEDAEAVLAAIPLQDQDTRYHSLVAQIELLKQAADTPEIQHLQQQLDADPQNADLAVQLALQLHQVSRNEEALELLMGFLKKDLAVANGSARKTLMDIMAALGTSDALAARYRRQLYSLLY
MGSDKIHHHHHHMLFLMDFSMQTHAQTGDITPVVFDQFFQNYYLINPASSDSTGKIQVNIGNRSLIGLFDGVNRLYVDGNVRINHRTAMQYSRLGALVIAYNDGAFINRTRAYLRYSWSTSISERASISAGISAGMVKYTFLASQAGGGGSSTSFDGNAGLWYIRPKLKIGISYQQFTRSELTPVNQTFLLTPYINVNAVYASYLSAHVLLTTHVFYRYESGSVFDIQAAPVFLFNDLFEAGINLRYKRGVAILFGLKSIHVGTGNIRFMGSFMLSTRKLANTLDNAFELSAGYSF
MGSDKIHHHHHHMLHRRKTYTIRPERLQEFTEFFHTYLYPLQISHGARLVGRWVNEAEDEVIAIWEYRDREHYEQVDRDVRGSTLRREAMKKRARLGKNLYIKSTEDFLTATGVYAPPRAIVSVTAYITNEAGEVLLVRNLHRGDTYEMPGGQVENHESILDAVKREVKEETGADVTIEGITGIYQNVSSHVLCVAFRGTYTGGELRPQEGETAEVGFFDLNRENIDTYIKREHFQLRTLDAMDPHYFPHALYKVRPYELISRYDGNAPSALSGQN
MGSDKIHHHHHHMLIEIPNVFSKQEVSHLREQLDARRWIDGNQTSGAMATTRKRNQQLDKDDPVAVALGQQIMDRLLAHPQFVSAALPLQFYPPLFNRYQGGETFGYHIDNAIRSTPDGMIRTDLSATLFLSEPENYQGGELVIQDTYGQQSIKLSAGSLVLYPSSSLHQVTPVLSGERTAAFMWLQSMVRDEGQRRLLFQLDQSIQSLTAQTAAEQELFNLSGVYHNLLRRWSEL
MGSDKIHHHHHHMLKITFLGTNGWFDSNTGNTPSVLIEHRNYYIILDAGNGISKLRNCISSDKPVYLFLSHFHLDHISGLHTLPLNKFSKGLYIIVPKGGTKLINQFVNVPFTVPIKKLPFKTEIIEACNKLNFLPFKATFLPLVHSSYVLGIRLEIDSKTISYCTDTSYCFNAITLAKNADLLISECSMKPLGTDDASVHLNPELASKIAKEAGAKKLMLIHFDAAKYLTLDDRKKAELAAKTIFNNSYASYDDLELQV
MGSDKIHHHHHHMLKSIKSSGVTAVLDHDGFNKRIRVVRYDGAIEKALPDIVAAAKEENAEKIIVYAKQHDEPILAKQLFAPEGYLKGYYLGHSACVMVRYLSESRRQTDSYTEEQEIIEAIYRTAPRLRNDSTPVFTMRKAETNDMYQLSMLYKKVFRTYPTPVFDPAYIEKTMNANTVYYIMLDHDRLISAASAEINPELGHAEITDCAVLPEYRGHSLTSFLIEALEKEMAGEDIVHVFSLARASSFGMNAVLYHSGYQYGGRLINNCFIAEGLENMNIWCKQL
MGSDKIHHHHHHMLLDHIFICVDENAPEADELVFLGLAEGTPNRHRGQGTANRRFFLPGVMLELLWVADLNELQSVTTRTLGLADRFAARKDGGSPFGFVFKPKNPRIGNSCPFPFRSYHPAYLPETLDMKVADATPRIEPLYVFIDFLPASCSTAQHHPCGIERLTSVHVTFPAQGAPSPVARMIDSLPGMSARVGREHLLELCFDDGKRGVRHDFRNRLPLIIRW
MGSDKIHHHHHHMLLDLERFYQACNPSRPLIIGNASDRRYYIDFAAVRGGKIIEALQRTIARISPDEPTCQLFTGHLGCGKSTELLRLKAELEAQQFHVVYFESTHVLEMADVDVTDILLAIAGQVSESLEAMKIRLKSTYFTKLFGEIVDFLQTPIDLGVEAELSVGIAKITAKTKESPQLRRRLRDYLEPRTANILQSINQELLERATKELKTKGKKGLVVIVDNLDRVAIRPLPSGRSLPEYLFIQRGEQLRKLNCHVVYTIPLALTFSNDSAELQHRLGGGVAPKMLPMIPVRLRSGEIFPQGLAMLRQMVLARAFPDILPSDRLGLITEVFDSLETLDRLCLISGGHVRDLLGLLFDCLREQDPPFERECVDLVIQRQRDYRANAIDPQEWELIFQVVQQQRVRGDIEYHTLLRSLFVFEYRDHQGAWFAVNPVLAETEKFKSWLNDTHKQI
MGSDKIHHHHHHMLLPNTRLIAAEQLLSPVDAARNRRLADTALTTAKSAGASYCDVRVGRYLRQFVITREAQVENVVNAESSGVGVRVLADGAWGFAATNTLTSDGVATATRQAVAIAKANARLGGTPVQLAPVTPAGQVSWKTPIKKNAMEVPLQDKVALLMDVNAAALNAGATFVASRMFAINEQKYFASSDGSYIDQDVHRLWLPFTVTAVDKASGKFRTRDGLSSPMGMGYEYLDGAAGEKHRLPGGLIGYGRSYDAREDAIAAAKQAREKLTAPSVKAGKYDLVIDPSNLFLTIHESVGHPLELDRVLGYEANYAGTSFATLDKRDAGYRWGSDAVTFVADKTQPGSLGAVGYDDEGVKTKQWDLVKDGILVDYQCTRDQAHLLGKTASDGCSYADSWSNVQFQRMPNVSLAPGRTPLAVADMIKNVERGLYIHGRGSYSIDQQRYNAQFGGQLFYEIENGQVTRLVEDGAYQIRTPEFWNACSAVCDQRDFRLGGSFFDGKGQPSQVSAVSHGSSTARFDGINVINTARSLG
MGSDKIHHHHHHMLLVTSHDIQTALEKGIQYQKLTHLFGTLSLQETENHIILNYLPVDLKTEIGLLRAQCEISGTYKFIQDIYTMMGLKMPDMRIDLPFPKPSDPDTVAQYYAYYGDDLHFNSTHAAFSLSKNVLEIKIPSADIITHRIYEAKCIKEIERLNEQDHQIPPIIQYVQDYLELQQGIIPSMAETAFALKMPERTLRHQLQQLNTSYKQIREQIIKNKALKLMEYKEYSIEVIAEALGYSEPAAFNHAFKRWFGQSPRQYGKEFY
MGSDKIHHHHHHMLNLTPSAISQSIQKLRVIFPDPLFIRKGQGVTPTAFAMHLHEYISQGLESILGALDIEGSYDKQRTITIATTPSVGALVLPVIYRAIKTHYPQLLLRNPPISDAENQLSQFQTDLIIDNMFCTNRTVQHHVLFTDNMVLICREGNPLLSLEDDRETIDNAAHVLLLPEEQNFSGLRQRVQEMFPDRQINFTSYNILTIAALVANSDMLAIIPSRFYNLFSRCWPLEKLPFPSLNEEQIDFSIHYNKFSLRDPILHGVIDVIRNAF
MGSDKIHHHHHHMLNYSLRPENRGKNLESSWQYMFKTYPYLKPWIDSLKQNQALKDTFIYSPDHVKLHAYYVASSRPTAKTAVIVHGYTDNAIRMMMIGYLYNKKLDFNILLPDLRDTGLSGGNAIQMGWLDRKDVTQWMEVANRIYGDSTSMVVHGISMGAATTMMVSGEPQPDYVKCFVEDCGYTSVWDQFSKELKAQFGLPQFPLMYTADWLCQLEYGWGFKEASALKQVARCHLPMFFIHGDKDDYVPTWMVYKLYEAKPQPKALWIVPEADHAHSYLFNTEEYTQKVKAFVDKYIQ
MGSDKIHHHHHHMLPLSAEEFARLVPILRQAGLSHVTHIHELAGGLSNHNYHIQTPTTQYALRLNAEAADRFCSREQELFYWRNLAKAKLAPELIWTSCDHRYYLSAFIESQDIASLLNASQIPDMLGDWADVRGALNWKNLAYQCSAAEFTLGEQRLQTWLQAHAENFECALHQACMPQSFAAQLTPLALLESQCPNRVHSLLLQLLQRLRLQSAGPYHISVTEQWQQYHQQLLAFAATDKGSAWQTRLDLLLGLQPQIHRWTTVLADCLVAAQFCHRDLNPHNLLLKDNQLYCIDFEYATASHPLCELAVVLATHRLTPVQRHILVRQYLADHPGVTSTAITAVPAAIDMYWVFALYWALLIAAQTDAERQQEYLAWFDSFWSLVSQDA
MGSDKIHHHHHHMLPSQRHAFSIPEDVIYLDAAYMSPIPNIATEAGCDGVLVKAAPWDMTINSYYDEVERVRELAASFVGASIDDVGVIPATSYGIAVAAANVHVTPGSVIMMMDNEHTSHRYAWYELAEKKGATVVTVPRRPDQEWGSALAAAIKGSTVPVSVVAGTIVHWFEGMSVDIEVVADAAHAVGAALVMDGTQWVGAVPFDVSRIRPDFLSFATYKFLLGPYRLAFLYADKKWQEAGKPIEFHSWNRKGGERPDFYLETMPDYLPGARRFDMGERSDFAVLPIAIRSLELLQSWGSTAVFERLVHLNELIWKEAEARGFEGPRKDLRAPHISVIELGQRFRPDFARNLKDNKAFVTVRGTKMRITPHVYNEEHDIRRLFELVDSLTR
MGSDKIHHHHHHMLQTDNLIPDFINKQITQAVMSLRSGNVVAFPTETVYGLGADISQPQAIQKIFEIKGRPSSHPLIVHFANLSELEFWAENIPATAWILAQHFWPGPLTLILTKSNHIPLSVTGGQETVGLRIPRHPIALKLLEQLGSCKALAAPSANRFGFVSPTIADHVKNAFNDKIEVILDGGPCEVGLESTIVSCIDKDVTILRPGGISVLSIENLLQQKVSVKSQNKIRTPGSLSSHYATATPLEICQSSESLFSRSFDLLQQGIRTAVIIRSIHLIPMLNSDDKFHYILMPNDPVAFGKDLYATLRKLDDANFERILVEAPPDDLEWLAVADRLSRASYSFTSK
MGSDKIHHHHHHMLRLSALGDVCNLVPTIRVLQRLWPDARITWIIGKGEHSLLAGLSGVEFIVYDKATGLAGMREVWRQLGDTRFDVLLHMQQALRASVLSLGLKADLRIGYDKARAKDWQHWFTHRQLTPHPRAHVLDSFLDFARLLGGAERVDAEPLRWDLAIPDTAYQEAARVTGDAPYIVISPCANPRLRNFRNWSAEGYAAVISHAWQEHGLRTVMTGGGSTQEQEMGARIRALCAEEAVIDAIGATSLKGLLAMLDRARMVIAPDSGPVHMANALRTPTLGLYATTNPERAAPYCWRDFVVDRYPDAVRRYLHKSPEAITWGARVRHPDAMSLIHADDVIAQFDALLNAAPSASSRPEPDHET
MGSDKIHHHHHHMLRLSRELEVGEATVKRWLAGKGLTIDRLERLAGLCGMVLGDLVREAEEAPGVLAHELTLAQERALSSNIFLSFLFMTILNGIQPDETAADFSVPPREMEAALTRLERLALIDRLRSGRVRPLVDRNMVFRKLPLRNLFETHMKRVFFELDYGAPETIYTSEVVKLSVAGAAQLAELLERFRGEVQSLADRDAEKANKDRDWFGVLCVMRPLEMDPIRNAWWELS
MGSDKIHHHHHHMLRPESEAELAQIVAGLTAPVRIRGGGTRGVPGPKAELDISGLSGITLYEPGALTLVAKAGTPVAEIEAALAAEGQRLAFEPVDHRGLMGTGGTPTIGGVVAGNISGPRRIQAGAARDFLLGVRYVDGLGQVISNGGRVMKNVTGYDLVKLMAGSWGTLGVLSEVSLKVLPKAETQTTLAISVPDAASAVRALSAGLGSPYEVTGAAYDPALGQALVRIEGFEASVAYRAEALSRLFAPFGTVARLEDDPWPGIRDVAPFHGREGDVWRISVKPGDAPELAARCKAEALLFDWGGGLIWALMPEGADLRGRLGEFAGHATLIRGDRRQHAMFQPESAPLAALTRGLRQRFDPKGHFNPGLMG
